Earlier results on 1 substance are cited in patent US7547701B2, “Haloalkyl containing compounds as cysteine protease inhibitors” (Virobay, Inc., priority 2003, dated 2009).

For this series the following is noted: in clinical trials.

For the substance “OKT3: murine monoclonal antibody directed towards CD-3 domain of activated T-cells”, the “patients administered OKT3 that produce antibodies versus the therapy” value is reported as 20-40%.
